Laboratory results published in patent publication CN109232738A (GENSCRIPT NANJING CO LTD, dated 2019).

T1: 人OX40 expressed on cells (表达OX40的CHO细胞; OX40过表达的功能细胞系) (human, UniProt P43489 29-277)
T1 sequence (looked up): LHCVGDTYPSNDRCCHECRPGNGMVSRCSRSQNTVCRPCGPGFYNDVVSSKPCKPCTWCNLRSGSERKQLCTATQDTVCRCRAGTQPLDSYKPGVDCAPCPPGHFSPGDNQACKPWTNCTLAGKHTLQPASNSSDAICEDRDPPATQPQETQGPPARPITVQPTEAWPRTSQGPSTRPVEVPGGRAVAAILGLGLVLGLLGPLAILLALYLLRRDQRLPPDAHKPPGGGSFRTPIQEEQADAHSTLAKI

B1: 9G4C8B11 (antibody, V domains shown)
VH: DVQLQESGPGLVKPSQSLSLTCSVTGYSITSGYYWNWIRQFPGNKLEWMGYISYDGSNNYNPSLKNRISITRDTSKNQFFLKLNSVTTEDTATYYCARDRAYYSNYVGWYFDVWGTGTTVTVSS
VL: DIVLTQSPASLAVSLGQRATISCRASESVDNYGNSFMHWYQQTPGQPPKLLIYRASNLESGIPAKFSGSGSRTDFTLTINPVEADDVATYYCQQSNEDPLTFGAGTKLELK
B2: OX40L (ligand, UniProt P23510 51-183, looked up)
chain: QVSHRYPRIQSIKVQFTEYKKEKGFILTSQKEDEIMKVQNNSVIINCDGFYLISLKGYFSQEVNISLHYQKDEEPLFQLKKVRSVNSLMVASLTYKDKVYLNVTTDNTSLDDFHVNGGELILIHQNPGEFCVL
B3: 83C2H3B6 (antibody, V domains shown)
VH: QVQLKQSGPGLVQPSQSLSITCTVSGFSLTSYGVHWVRQSPGKGLEWLGVIWSGGSTDYNAAYISRLSISKDNSKSQVFFKMNSLQADDTATYYCANYDYDVPYWGQGTLVTVSA
VL: DIQMTQSPASQSASLGESVTITCLASQTIGTWLAWYQQKPGKSPQLLIYAATSLADGVPSRFSGSGSGTKFSFKISSLQAEDFVSYYCQQLYSTPFTFGSGTKLEIK
B4: 51E2G12D6 (antibody, V domains shown)
VH: QVTLKESGPGILQPSQTLSLTCSFSGFSLDTSGMGVTWIRQPSGKGLEWLAHIYWDDDKHYNPSLKSRLTISKDTSSTQVLLKITSVVTADTATYYCARRALGAMDYWGQGTSVTVSS
VL: DIQMTQTTSSLSASLGDRVTISCRASQDISHYLNWYQQKPDGTVKLLIYYTSTLHSGVPSRFSGSGSGTDYSLTISNLEQEDIATYFCQQGKTLPPTFGAGTELELK
B5: 68G8C4B12 (antibody, V domains shown)
VH: QVQLKESGPGLVAPSQSLSITCTVSGFSLTNYGVHWVRQPPGKGLEWLGVIWDDGNTNYNSALMSRLSINKDNSKSQVFVTMNSLQIDDTAMYYCALFDGYYGWFAYWGQGTLVTVSS
VL: DIQMTQTTSSLSASLGDRVTISCRASQDISFYLNWYQQKPDGTVKLLIYYTSRLHSGVPSRFSGSGSGTDYSLTISNLEQEDFATYFCQQGHTLPWTFGGGSKLEIK
B6: 99A2A8D4E8 (antibody, V domains shown)
VH: QIQLVQSGPELKKPGETVKISCKASGYTFTDYSMHWVKQAPGKGLKWMGWISTETGEPTYADDFKGRFAFSLETSASTAYLQIKNLKNEDTASYFCARVRPWYLAVWGAGTTVTVSS
VL: DIQMTQTTSSLSASLGDRVTISCRASQDISNYLNWYQQKPDGTVKLLIYYTSRLYSGVPSRFSGSGSGADYSLTVSNLEQEDIATYFCQQANTLPLTFGAGTKLELK
B7: 17B12G2C3 (antibody, V domains shown)
VH: EVQLQQSGPELVKPGASVKISCKASGYTFTDYYMNWVKQSHGKSLEWIGDINPNNGGTNYNQKFKGKATLTVDKSSSTTYMELRSLTSEDSAVYYCARSGGWLLQDYWGQGTTLTVSS
VL: DIQMTQTTSSLSASLGDRVTITCRASLDISNYLNWYQQKPDGTVKFLIYYTSRLHSGVPSRFSGSGSGTDYSLTISNLEQEDIATYFCQQGNTLPYTFGGGTKLEIK

Key:
[1] = biological target: T1, 人OX40 expressed on cells (表达OX40的CHO细胞; …); experiment: cell-based or functional assay
[2] = biological target: T1, 人OX40 expressed on cells (表达OX40的CHO细胞; …); experiment: flow cytometry on OX40-expressing CHO cells, 5 μg/ml antibody

| Binder | IL-8 secretion by OX40 over-expressing functional cell line (activation), EC50 [1] | 结合信号值 relative to control sample (fold) [2] | inhibition of IL-8 secretion by OX40 over-expressing functional cell line, IC50 [1] | inhibition of IL-8 secretion by OX40 over-expressing functional cell line, given as EC50 [1] |
| --- | --- | --- | --- | --- |
| B1 | 6.5 nM | 200 fold | – | – |
| B2 | 2.18 nM | – | – | – |
| B3 | – | 200 fold | 68 nM | – |
| B4 | – | 200 fold | 1.45 nM | – |
| B5 | – | 200 fold | – | 2.36 nM |
| B6 | 0.58 nM | 200 fold | – | – |
| B7 | – | 200 fold | 8.23 nM | – |
